Assay results as given in the nanobody polyreactivity screen of Harvey et al. (2022).

Test: yeast display, Sf9 membrane polyspecificity reagent, FACS + sequencing; frameworks hold sequencing errors
In short: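 A synthetic nanobody library was expressed on Saccharomyces cerevisiae BJ5465 by galactose induction for 36–48 hours. The library was stained for 1 hour at 4 °C with 10% biotinylated, detergent-solubilized Sf9 membrane reagent and enriched with streptavidin microbeads before FACS. Low and high (top ~1%) gates were set on anti-HA fluorescence for expression and streptavidin fluorescence for reagent binding, and each polyreactivity label reflects the gate of origin.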

| Sequence | polyreactivity (PSR sort gate) |
| --- | --- |
| QVQLVEAGGGLVQAGGSLRLSCAASGPIFPLYAKGWYRQAPGKERELVAAISSGGTTYYADSVKGRFTISRDNAKNTVYLQMNSLKQEDTAVYYCARRPAQRLGRFDYWGQGTQVTVSS | low polyreactivity |
| QVQLVESGGGLVQAGGSLRLSCAASGFTFRKNAMGWYRHAPGKERELVAVISSSGGSTSYADSVKRRFTISRDNAKNTVYLQMNSLKPEDTAVYYCAAGSSRLRALYNYWGQGSQVTVSS | high polyreactivity |
| QVQLVESGGGLVQAGGSLRLSCAASGSTFRYYAMGWYRQAPGKERELVAANTYRATSTYYADSVKGRFTISRDNAKNTVYLQMNSLKPEDTAVYYCAAYSTYSRYDYWGQGTQVTVSS | high polyreactivity |
| QVQLVESGGGLVQAGGSLRLSCAASGRIFWVYAMGWSRQAPGKERERVAAITWRGVSTYFADSVKGRFTISRDNAKNTVYLQMNSLKPEDTAVYYCAVSLYGYSGNYGPYWYDYWGQGTQVTVSS | low polyreactivity |
| QVQLVESGGGLVQAGGSLRLICAPSGRITLRYAIGWYRQAPRKERDFVAAITVSGGSTYYADSVKGRFTISRDNAKNTVYLMMNRLKPEDTAVYYCAVRQKTQYGSKHDYWGQGTQVTVSS | high polyreactivity |
| QVQLVESGGGLVQAGGSLRLSCAASGSIFYENAMGWYRKAPGKEREFVATIDLIGDRTYYADSVKGRFTISRDNAKNTVYLQMNSLKPEDTAVYYCAAERVGVFFRYDYWGQGTQVTVSS | low polyreactivity |
| QVQLVESGGGLVQAGGSLRLSCAASGRTLTGNAMGWYRQAPGKERELVAAISWSAGSTYYADSVKGRFTISRDNAKNTVYLQMNSLKPEDTAVYYCALTLRRNLVRMGYWGLGTQVTVSS | high polyreactivity |
| QVQLVESGGGLVQAGGSLRLRCAASGSTSAYYAMGWYRQAPGKERELVAAISWSGGRTYSADSVKGRFTISRDNAKNTVYLQMNSLKPEDTAVYYCAARFWFTKGYDYWGQGTQVTVSS | high polyreactivity |
| QVQLVESCGGLVQAGGSLRLSCAASGSIIFPYALGWYRQAPGKERELVAAISWSGGRTYYADSVKGRFTISRDNAKNTVYLQMNSLKPEDTAVYYCAADGYPYFYGDFDYWGQGTQVNVSS | high polyreactivity |
| QVQLVESVGGLVQAGGSLRLSCAASGSIFVTNAMGWYRQAPGKERELVAAISSGGNTNYADSVKGRFTISRDNAKNTVYLQMNSRKPEDTAVYYCAKDPDKVDYVDMDYWGQGTQVTVSS | low polyreactivity |
| QVQLVESGGGLVQAGGSLRLSCAASGSIFEGYVMGWYRQAPGKERELVATISFSGGSTYYADSVKGRFTISRDNAKNTVYLQMNSLKPEDTAVYYCATSRYFNTGRGYWGQGTQVTVSS | low polyreactivity |
| QDQLVESGGRLVQAVGSLRLTCAASGRIFRGNGLGWYRQAPGKARELVASISSGGRTNYADSVKGRFTISRDNAKNTVYLQMNSLKPEDTAVYYCSATKSPSLYRWLYDYWGQGTQVTVSS | high polyreactivity |
| QVQLVESGGGLVQAGGSLRKSCAASGRIFSANAIGWYRKAPGTEWELVAAITCSGGSTYYADSVKGRFTISRDTAKNTVYLQMHSLKPEETAVYYCAAESAAYGGGTSDAGYESDYWGQGTQVTVSS | low polyreactivity |
| QVQLVESGGGLVQAGGSLRLSCAASGSIFLYYAMGWYRQAPGKERELVAAISQNGGSTYYADSVKGRFTISRDNAKNTVYLQMNSLKPEDTAVYYCNKYSFALRYDYWGQGTQVTVSS | low polyreactivity |
| QVQLVESGGGLVQAGGSLRLSCAASGFIFSYYTMGWYRQAPGKERELVAAISRRGGSTYYADSVKGRFTISRDNAKNTVYLQMNSLKPEDTAVYYCAAPRDWDAGDYWGQGTQVTVSS | high polyreactivity |
| QVQLVESGGGLVQAGGSLRLSCAASGRIFFPYAMGWYRQAPGKERELVAVITSGGTTYYADSVKGRFRISRDNAKNTVYLQMNSLKTEDTAVYYCAVHWYSYRYAATMDYWGQGTQVTVSS | high polyreactivity |
| QVQLVESGGGLVQAGGSLRLSCAASGGIIDWYVKGWYRQAPGTERELVAAISYKGGSTYYADSVKGRFTISRDYAKTTGYFQMNSLKPEETAVYDCAAGVTSPYRYVWYDYWGQGTQVTVSS | low polyreactivity |
| QVQLVESWGGLVQAGGSLRLSCAASGSIFSVYAMGWYRQAPGKERELVAAITSGGGTKYADSLKGRFTISRDNAKNTVYLQMNSLKPEDTAVYYCAAESFSDGSPYNYWGQGTQVTVSS | low polyreactivity |
| QVQLVESGGGLVQAGGSLRLSCAASGSTFHYYAMGWYRQAPGKERELVAAISKSGGITYYADSVKGRFTISRDNAKNTVSLQMNSLKPEDTAVYYCNAYSASGYDYWGQGTQVTVSS | high polyreactivity |
| QVQLVESGGGLVQAGGSLRLSCAASGFTFGRNAMGWYRQAPGKEREFVAAISKSGTSTYYADSVKGRFTISRDNAKNTVYLQMNSLKPEDTAVYYCARTIYAKRWDFDYWGQGTQVTVSS | low polyreactivity |
| QVQLVESVGGLVQAGGSLRLSCAASGSIFYNNAMGWYRQAPGKDRELVAAIRSTGTRTYYADSVKGRFTISRDHAKNTVYLQMNSLKAEDTAVYYCAVGDYGLWSYDYWGQGTQLTVSS | low polyreactivity |
| QVQLVESGGGLVQAGGSLRLSCAASGRTFYYYAMGWYRQAPCKERELVSAITTDGGNTYYADSVKGRFTISRDNAKNTVYLQMNSLKPEDTAVYYCATDGYEYTDYGSSGYDYWGQGTQVTVSS | low polyreactivity |

| Sequence | polyreactivity (PSR sort gate) |
| --- | --- |
| QVQLVESGGGLVQAGGSLRLSCAASGLTFPYYAMGWYRQAPGKERELVAAISGGGRTYYADSVMGRFTISRDNAKNTVYLQMNSLKPEDTAVYYCAPFHVGRYTGTVTDGYDYWGQGTQVTVSS | high polyreactivity |
| QVQLVESGGGLVQAGGSLRLSCAASGTFVTYMGWYRQSPGKEREMVAAIRNGGSTNYADSVKGRFTISRDNAKNTVYLQMNSLKPEDTAVYYCAARVTYSRGYRGGSRTKYDYWGQGTQVTVSS | low polyreactivity |
| QVQLVESGGGLVQAGGSLRLSCAASGSTFRGYAMGWYRQAPGKERELVAAISWSGGSTYYADSVKGRFTISRDNAKNTVYLQMNSLKPEDTAVYYCNAVLYRFAYNYWGQGTQVTVSS | low polyreactivity |
| QVQLVESGGGLVQAGGSLRLSCAASGITFFLYAMGWYRQAPGKERELVAVISASGGSTYYADSVKGRFTISRDNAKNTVYLQMNSLKPEDTAVYYCAAGYRFYGFYALYYWGQGTQVTVSS | high polyreactivity |
| QVQLVESGGGLVQAGGSLRLSCAASGSTFWYYAMGWFRQAPGKERELVAAITRGASTNYADSVKGRFTISRDNAKNTVYLQMNSLKPEDTAVYYCAAGPARWKGYYWGQGTQVTVSS | high polyreactivity |
| QVQLVESGGGLVQAGGSLRLSCAASGYTFRFNAMGWYRQAPGKEREFVAAIDFGGAGTYYADSVKGRFTISRDNAKNTVYLQMNSLKPEVTAVYYCNARDGVTTEFDYWGQGTQVTVSS | low polyreactivity |
| QGQLVESGGGLVQAGGSLRLSCAASGFIFFSNAMGWYRQEPGKERELVAAISRIGVSTYYADSVKGRFTISRDNAKNTVYLQLNSLKPEDTAVYYCAADLSDYWRGDSWGQGTLVTVSS | low polyreactivity |
| QDQLVESGGGLVQAGGSLRLSCAASGFILKYYAMGWYRQAPGKEREFVAAITVSGGSTYYADSVKGRFTISRDNAKNTVYLQMNSLKPVDTAVYYCNADYPRGGAGLPDYWGQGTQVTVSS | low polyreactivity |
| QVQLVESGGGLVQAGGSLRLSCAASGSTFSYNAMGWYRQAPGKERELVAAITSTGRTYYADSVKGRFTITRDNAKNTVYLQMISLKPEDTAGYYCNKVYYRFYSADFGYGWYLRYDYWGQGTQVTVSS | high polyreactivity |
| QVQLVESGGGLVQAGGSLRLSCAASGRILKWNARGWYRHAPGKERELVAAISQSGGSTYYADSVKGRFTISRDNAKNTVYLQMNSLKPEDTAVYYCAARRGSKFWGQGTQVTVSS | low polyreactivity |
| QVQLVESGGGIVQAGGSLRLSCAASGSTFFSYAMGLYRQAPGKERELVAGIDWNGGDTNYADSVKGRFTISRDNAKNTVYLQMNSLKPEETAVYYCATDYSFPGPFRRRERFDYWGQGTQVTVSS | low polyreactivity |
| QDQLVESGGGLVQAGGSLRLTCAASGRTFTHYAMGWYRQAPVKERELVAAISRSGGTTYYADSVKGRFTISLDNAKNTVYLQMNSRKPEDTAVYYCAARWWYRYNYDYWGQGTHVTVSS | high polyreactivity |
| QVQLVDSGAGLVQAGGSLRLSCAASGRIFYSYAMGWYRQAPGKDRELVARITRGSSTYYADSVKGRFTISRDNAKNTVYLQMNSLKPEDTAVYYCAKSRYTALTNHWSHDYWGQVTQVTVSS | low polyreactivity |
| QVQLEESGGGLVQAGGSLRLSCAASGFIFLDYAMGWYRQAPGKERELVAAISSRGARTYYADSVKGRFTISRDNAKNTVYLQMNSLKPEDTAVYYCAARGPLDRYGYWGQGTQVTVSS | high polyreactivity |
| QVQLVESGGGIVQAGGSLRVSCAASGRTYLRNAMGWSRQAPGKERELVASITSRGGRTYADSVKGRFTISRDNAKNTVYLQMNSLKPEDTAVYYCDARRQAGLRYDYWGQGTQVTVSS | high polyreactivity |
| QVQLVESGGGLVQAGGSLRISCAASGRIFNYYDMGWYRQAPGKERELVAAISWRGTSTRYADSVKGRFTISRDNAKNTVYLQMQSLKPEDTAVYYCAADDYARRFSFKYDYWGQGTQVTVSS | high polyreactivity |
| QVQRVESGRGLVQAGGSLRLRCAASGNIFPWSAMGWSRQAPGKERELVAAITSGGGSTYYGDSVKGRFTISRDNAKNTVYLQMNRLKPEDTAVYYCNAESAFVSYYSEDYDYWGQGTQVTVSS | low polyreactivity |
| QVQLVESGGGLVQAGGSLRLSCAASVRLFRGYAMGWYRQAPGKERELVAGITSGGSTKYADSVKGRFTISRDNAKNTVYLQMNSLKPEDTAVYDCAKGYLAYSYYARPYIRYYWGQGTQVTVSS | high polyreactivity |
| QVQLVESGGGLVQAGGRLRLSCAASGSTFYWNTMGWYIQAPGKERELVAAISRRGGSTYYADSEKGRFTISRDNAKNTVYLQMNSLKPEETAVYYCNKLLSQRRYHSEMDYWGQGTQVTVSS | high polyreactivity |
| QVQLVESGGGLVQAGGSLRLSCAASGSTFGDNAMGWYRQAPGKERELVATITWSDDSTYYADSVKGRFTISRDNAKNTVYLQMNSLKPEDTAFYYCAADVDSYLLIGAVEYDYWGHGTQVTVSS | low polyreactivity |
| QVQLVETGGGLVQAGGSLRISCAASGRIFGWYAMGWYRQAPGKERELVAGINYGGGRTYYADSVKGRFTISRDNAKNTVYLQMNSLKPEDTAVYYCAAGISGHYYWGQGTQVTVSS | high polyreactivity |
